Tests used:
Assay in all cases: activation reporter or marker
[1] = target: T1, HPV 16 E7(11-19), single-substitution variant Y1I (synthetic scanning library) peptide on HLA-A*02:01 (human)
T1 peptide: IMLDLQPET

[2] = target: T2, HPV 16 E7(11-19), single-substitution variant T9I (synthetic scanning library) peptide on HLA-A*02:01 (human)
T2 peptide: YMLDLQPEI

[3] = target: T3, HPV 16 E7(11-19), single-substitution variant E8K (synthetic scanning library) peptide on HLA-A*02:01 (human)
T3 peptide: YMLDLQPKT

[4] = target: T4, HPV 16 E7(11-19), single-substitution variant T9M (synthetic scanning library) peptide on HLA-A*02:01 (human)
T4 peptide: YMLDLQPEM

[5] = target: T5, HPV 16 E7(11-19), single-substitution variant E8M (synthetic scanning library) peptide on HLA-A*02:01 (human)
T5 peptide: YMLDLQPMT

[6] = target: T6, HPV 16 E7(11-19), single-substitution variant L3V (synthetic scanning library) peptide on HLA-A*02:01 (human)
T6 peptide: YMVDLQPET

[7] = target: T7, HPV 16 E7(11-19), single-substitution variant L3A (synthetic scanning library) peptide on HLA-A*02:01 (human)
T7 peptide: YMADLQPET

[8] = target: T8, HPV 16 E7(11-19), single-substitution variant T9A (synthetic scanning library) peptide on HLA-A*02:01 (human)
T8 peptide: YMLDLQPEA

[9] = target: T9, HPV 16 E7(11-19), single-substitution variant P7C (synthetic scanning library) peptide on HLA-A*02:01 (human)
T9 peptide: YMLDLQCET

[10] = target: T10, HPV 16 E7(11-19), single-substitution variant T9V (synthetic scanning library) peptide on HLA-A*02:01 (human)
T10 peptide: YMLDLQPEV

[11] = target: T11, HPV 16 E7(11-19), single-substitution variant T9D (synthetic scanning library) peptide on HLA-A*02:01 (human)
T11 peptide: YMLDLQPED

[12] = target: T12, HPV 16 E7(11-19), single-substitution variant T9F (synthetic scanning library) peptide on HLA-A*02:01 (human)
T12 peptide: YMLDLQPEF

[13] = target: T13, HPV 16 E7(11-19), single-substitution variant E8V (synthetic scanning library) peptide on HLA-A*02:01 (human)
T13 peptide: YMLDLQPVT

[14] = target: T14, HPV 16 E7(11-19), single-substitution variant Y1A (synthetic scanning library) peptide on HLA-A*02:01 (human)
T14 peptide: AMLDLQPET

[15] = target: T15, HPV 16 E7(11-19), single-substitution variant E8C (synthetic scanning library) peptide on HLA-A*02:01 (human)
T15 peptide: YMLDLQPCT

[16] = target: T16, HPV 16 E7(11-19), single-substitution variant L3M (synthetic scanning library) peptide on HLA-A*02:01 (human)
T16 peptide: YMMDLQPET

[17] = target: T17, HPV 16 E7(11-19), single-substitution variant M2L (synthetic scanning library) peptide on HLA-A*02:01 (human)
T17 peptide: YLLDLQPET

[18] = target: T18, HPV 16 E7(11-19), single-substitution variant Y1V (synthetic scanning library) peptide on HLA-A*02:01 (human)
T18 peptide: VMLDLQPET

[19] = target: T19, HPV 16 E7(11-19), single-substitution variant L3I (synthetic scanning library) peptide on HLA-A*02:01 (human)
T19 peptide: YMIDLQPET

[20] = target: T20, HPV 16 E7(11-19), single-substitution variant Y1L (synthetic scanning library) peptide on HLA-A*02:01 (human)
T20 peptide: LMLDLQPET

[21] = target: T21, HPV 16 E7(11-19), single-substitution variant Y1H (synthetic scanning library) peptide on HLA-A*02:01 (human)
T21 peptide: HMLDLQPET

[22] = target: T22, HPV 16 E7(11-19), single-substitution variant Y1T (synthetic scanning library) peptide on HLA-A*02:01 (human)
T22 peptide: TMLDLQPET

[23] = target: T23, HPV 16 E7(11-19), single-substitution variant E8W (synthetic scanning library) peptide on HLA-A*02:01 (human)
T23 peptide: YMLDLQPWT

[24] = target: T24, HPV 16 E7(11-19), single-substitution variant Y1C (synthetic scanning library) peptide on HLA-A*02:01 (human)
T24 peptide: CMLDLQPET

[25] = target: T25, HPV 16 E7(11-19), single-substitution variant Y1M (synthetic scanning library) peptide on HLA-A*02:01 (human)
T25 peptide: MMLDLQPET

Measured: binding result

B1: TCR 57 (TCR, V domains shown)
Valpha: TQLLEQSPQFLSIQEGENLTVYCNSSSVFSSLQWYRQEPGEGPVLLVTVVTGGEVKKLKRLTFQFGDARKDSSLHITAAQPGDTGLYLCAGARNFNKFYFGSGTKLNVKP
Vbeta: GAVVSQHPSWVICKSGTSVKIECRSLDFQATTMFWYRQFPKQSLMLMATSNEGSKATYEQGVEKDKFLINHASLTLSTLTVTSAHPEDSSFYICSARSWRGGLEQFFGPGTRLTVL
recognises: all assays above
